Data from US9279107B2, “Simplified basic media for human pluripotent cell culture” (WISCONSIN ALUMNI RESEARCH FOUNDATION, priority 2010, dated 2016).

B1: FGF6: FGF family member growth factor (protein, UniProt P10767 38-208, looked up)
Fibroblast growth factor 6: SPAGTRANNTLLDSRGWGTLLSRSRAGLAGEIAGVNWESGYLVGIKRQRRLYCNVGIGFHLQVLPDGRISGTHEENPYSLLEISTVERGVVSLFGVRSALFVAMNSKGRLYATPSFQEECKFRETLLPNNYNAYESDLYQGTYIALSKYGRVKRGSKVSPIMTVTHFLPRI
B2: NODAL (protein, UniProt Q96S42 238-347, looked up)
Nodal homolog: HHLPDRSQLCRKVKFQVDFNLIGWGSWIIYPKQYNAYRCEGECPNPVGEEFHPTNHAYIQSLLKRYQPHRVPSTCCAPVKTKPLSMLYVDNGRVLLDHHKDMIVEECGCL
notes: recombinant protein of the TGF-β pathway
B3: FGF4: FGF family member growth factor (protein, UniProt P08620 31-206, looked up)
Fibroblast growth factor 4: APTAPNGTLEAELERRWESLVALSLARLPVAAQPKEAAVQSGAGDYLLGIKRLRRLYCNVGIGFHLQALPDGRIGGAHADTRDSLLELSPVERGVVSIFGVASRFFVAMSSKGKLYGSPFFTDECTFKEILLPNNYNAYESYKYPGMFIALSKNGKTKKGNRVSPTMKVTHFLPRL

Experiments:
foreskin cells = experiment: Foreskin cell growth in DF5SFe-based media; design: species or system human; details: individual FGF added at 100 ng/ml for 96 h to DF5SFe minus FGF
Protocol: To determine growth factors that can help primary foreskin cell growth, individual growth factors contained in FBS were tested. The FGF family of growth factors has several members, one or more of which is commonly used for fibroblast culture. DF5SFe contains 100 ng/ml zebrafish recombinant FGF2. Each FGF family member was tested for its ability to support foreskin cell growth. Foreskin cells were aliquoted into the well of culture plates and incubated for 24 hours in DF5SFe minus FGF. Individual FGF types were added at 100 ng/ml for 96 h.

H1 cells [1] = experiment: NANOG mRNA expression; assay type: cell-based, human; details: added to DF5S; NODAL 100 ng/ml or TGF-β 2 ng/ml; compared to DF5S
Excerpt: DF5S was used to expand H1 cells. Cells grown in DF5S were more prone to differentiate than cells grown in TeSR™. However, H1 cells could be grown for several weeks (more than 15 passages), during which the cells maintained human ES cell morphology and high levels of OCT4 expression (FIG. 1E, FIG. 1F). […] DF5S+NODAL also supported pluripotency of the two tested human iPS cell lines, as determined by high expression of the pluripotency marker OCT4. All cells (hES cells and iPS cells) grown in DF5S with either NODAL or TGF-β maintained a normal karyotype after long-term passage.

H1 cells [2] = experiment: Oct4 expression by flow cytometry as indicator of pluripotency; assay type: cell-based, human; details: DF5SFe supplemented with NODAL at TeSR concentration
Protocol: As described in Example 3, human pluripotent cells, such as H1, H9, and iPS cells, could be grown and passaged over 15 times in DF5S but were prone to differentiate, such that extra care is needed to sustain pluripotency in DF5S. Because pluripotency could be maintained more easily in TeSR™, growth factors present in TeSR™ were added individually to DF5SFe used to grow H1 cells that were previously cultured in DF5S without differentiating to identify factors supporting long-term pluripotency. Cells were passaged approximately one day after reaching confluency, facilitating cell differentiation, and Oct4 expression, assessed by flow cytometry, was used as indicator of pluripotency.
Human pluripotent cells grown in DF5SFe elongated and lined up along each other, resembling a “spindle” shape just prior to differentiation. […] Thus, recombinant proteins of the TGF-β pathway were tested for their ability to support long-term pluripotency.

iPS cells = experiment: Long-term pluripotency of lentiviral iPS cell lines; assay type: cell-based, human; details: added to DF5SFe; TGF-β 2 ng/ml or NODAL 100 ng/ml
Excerpt: Human ES cell lines, such as H1 and H9 have a culture history that includes exposure to various complex culture components, such as FBS, feeder cells, and knockout serum replacer. Exposure to these components could conceivably create dependency on these components and, consequently, alter cellular response to simplified media. Culture history might play a lesser role for iPS cells, derived from reprogrammed somatic cells, as derivation conditions are less complex. Therefore, different factors were tested with two original lentiviral iPS cell lines (Yu, et al., Science 318:1917 (2007)) grown in DF5SFe. Cells were transferred from MEF plates directly into DF5SFe medium for one passage and then passaged into various growth factor conditions. […] Pluripotency surface markers SSEA4, SSEA3, Tra-1-60, and Tra-1-81 were also expressed. Cells with normal karyotypes were continuously maintained for more than 20 passages. The cells were capable of forming teratomas 5-7 weeks after injection into severe combined immunodeficient (SCID) mice.

Row | Molecule | foreskin cell growth (foreskin cells) | NANOG mRNA level (H1 cells [1]) | Oct4 expression (H1 cells [2]) | long-term pluripotency (iPS cells)
1 | B1 | supported foreskin cell growth most effectively | – | – | –
2 | B2 | – | significantly higher levels of NANOG mRNA | sustained high Oct4 expression | supported long-term pluripotency of iPS cells
3 | B3 | supported foreskin cell growth most effectively | – | – | –
